Measured values as given in patent US6187552A, “Method for identifying inhibitors of JAK2/cytokine receptor binding” (Pharmacia & Upjohn Company, priority 1998, dated 2001).

Experiments:
JAK2 [1] = biological target: T1, JAK2 (Homo sapiens, UniProt O60674); assay: ELISA binding of JAK2 to immobilized βc peptides; parameters: Y918N clone error corrected to Tyr
Description: βc peptides corresponding to the proposed JAK2 binding domain (Table 1) were serially diluted and bound 16 hours at room temperature to streptavidin coated 96-well plates (Boehringer-Mannheim, Indianapolis, Ind.) and blocked at 37° with 1% fetal bovine serum in PBS. JAK2 protein was serially diluted on the plate and allowed to bind for 1 hour at room temperature. Plates were washed between incubations with ELISA wash (PBS with 0.04% TWEEN 20). Detection was via anti-FLAG antibody (10 μg/ml, Kodak, New Haven, Conn.) followed by anti-mouse Ig conjugated to peroxidase (1:5000 dilution, Boehringer Mannheim) and 1 mg/ml 2,2'-azinobis(3-ethylbenzthiazolinesulfonic acid) (Sigma), 0.003% H2 O2, 28 mM citric acid, 44 mM Na2 HPO4.
The ELISA assay worked best when the biotinylated βc peptides were immobilized on a streptavidin 96-well plate and the JAK2 was allowed to bind. A dual titration of βc peptides vs. JAK2 was performed (FIG. 24). Peptide 1 [SEQ ID NO:11] (FIG. 24 A) and peptide 2 [SEQ ID NO:12] […] Because 0.4 μM peptide was calculated to saturate the number of biotin binding sites in each well, it was expected that the amount of JAK2 binding should saturate at this quantity of peptide. […] (FIGS. 24 C and D) but peptides 5 and 6 [SEQ ID NOS:15 and 16]

JAK2 [2] = biological target: T1, JAK2; assay: SPA: binding of 3H-JAK2 to βc peptides on streptavidin-coated beads; parameters: NJAK2 = N-terminal 294 residues
Description: Cells were lysed by dounce homogenization (20 strokes) in 1X phosphate buffered saline (PBS), pH 7.5 at 4 C. […] For some experiments, the JAK2 protein (0.15 mg/ml), aliquoted into 7 equivalent tubes, was then subjected to ultracentrifugation in an Airfuge using an A-110 rotor at an average of 164,000×g for a period of 6 hours at ambient temperature. At zero time, and at each subsequent hour thereafter, a tube of JAK2 was removed for analyses (ELISA, SDS polyacrylamide gel electrophoresis, and Western blotting).
Three different labeling reactions were done using ^3 H-N-succinimidyl propionate (^3 H-NSP, Amersham Life Sciences, Arlington Heights, Ill.). One reaction was done using 0.5 mg of purified JAK2 in 0.1 M borate buffer, pH 8.5, with a reaction volume of 150 μl and an incubation time of one hour on ice with dried 1 mCi of ^3 H-NSP (toluene was removed using a stream of nitrogen). […] Another reaction was done using the buffer 0.1 M sodium phosphate, pH 8.0, and a similar volume as before. One milligram of JAK2 in 1.2 ml of phosphate buffer was incubated for three hours on ice. […] A third reaction was done using 2.5 mg of purified JAK2 in 0.1 m sodium phosphate, pH 8.0, and 2.5 ml volume. It was incubated with 5 mCi of dried ^3 H-NSP on ice for 2 hours. […] All three products were separated from unincorporated label using PD-10 columns (Pharmacia Biotech, Uppsala, Sweden) pre-equilibrated with 20 mM Tris, pH 8.0, 0.15 M NaCl.
Triplicate reactions were done for each data point. The buffer used in all the assays was 35 mM sodium phosphate, 150 mM NaCl, pH 8.0, 10% glycerol. Biotinylated peptides were allowed to bind to streptavidin-coated SPA beads (Amersham Life Sciences, Arlington Heights, Ill., catalog # RPNQ0006) with either less than saturating peptide or excess peptide. […] Under less than saturating conditions, beads and 40 pmole peptide were added to the assay plate well and incubated for one hour with gentle shaking on a Titer plate shaker (Lab-Line Instruments, Inc., Melrose Park, Ill.) at 600 rpm and not washed. […] The plates were then read on a MicroBeta (Wallac) set to read scintillation due to tritium.
Either ^3 H-JAK2 or ^3 H-NJAK2 was added to the wells and, after incubation, the signals measured. […] A competition reaction was also done by adding 5 to 10-fold excess unlabeled JAK2 in those reactions.

T1 sequence (O60674 3-1132): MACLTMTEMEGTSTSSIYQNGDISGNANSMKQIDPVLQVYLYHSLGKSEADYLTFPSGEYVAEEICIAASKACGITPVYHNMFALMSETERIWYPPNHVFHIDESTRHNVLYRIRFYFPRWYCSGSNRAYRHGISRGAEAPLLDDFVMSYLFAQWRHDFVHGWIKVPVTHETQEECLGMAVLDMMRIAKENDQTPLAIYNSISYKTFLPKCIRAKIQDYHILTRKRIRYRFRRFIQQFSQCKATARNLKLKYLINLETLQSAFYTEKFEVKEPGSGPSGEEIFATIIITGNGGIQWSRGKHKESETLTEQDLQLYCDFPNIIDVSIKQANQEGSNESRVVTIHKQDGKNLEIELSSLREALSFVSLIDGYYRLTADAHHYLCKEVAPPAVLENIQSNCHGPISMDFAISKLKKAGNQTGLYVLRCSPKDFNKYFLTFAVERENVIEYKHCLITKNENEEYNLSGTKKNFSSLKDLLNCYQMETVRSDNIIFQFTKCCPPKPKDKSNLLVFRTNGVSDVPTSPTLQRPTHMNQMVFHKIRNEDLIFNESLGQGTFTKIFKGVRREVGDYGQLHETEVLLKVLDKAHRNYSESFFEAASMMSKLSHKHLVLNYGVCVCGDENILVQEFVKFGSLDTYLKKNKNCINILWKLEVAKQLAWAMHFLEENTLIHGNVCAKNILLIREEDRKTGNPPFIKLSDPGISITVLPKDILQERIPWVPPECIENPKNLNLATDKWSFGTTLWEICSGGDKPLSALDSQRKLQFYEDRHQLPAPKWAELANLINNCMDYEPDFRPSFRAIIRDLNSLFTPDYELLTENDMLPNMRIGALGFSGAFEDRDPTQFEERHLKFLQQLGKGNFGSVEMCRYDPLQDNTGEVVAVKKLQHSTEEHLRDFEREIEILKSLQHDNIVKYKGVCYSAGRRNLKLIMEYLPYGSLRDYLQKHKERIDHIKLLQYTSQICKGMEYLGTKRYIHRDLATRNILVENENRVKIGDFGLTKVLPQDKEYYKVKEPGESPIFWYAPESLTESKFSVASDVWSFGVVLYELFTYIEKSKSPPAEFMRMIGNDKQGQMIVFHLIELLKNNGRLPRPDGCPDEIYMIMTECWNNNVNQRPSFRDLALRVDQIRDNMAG

**Q.** Which results are given for “GIYGYRLRRKWEEKIPNPSKSHLFQNGSAELWP [peptide 4, βc peptide, N-terminal truncation]”?
**A.** suitability for the ELISA (JAK2 [1]): appear optimal; binding in the SPA, comparison of peptides (JAK2 [2]): binds better than peptide 3; suitability in the SPA (JAK2 [2]): two most optimal; signal-to-noise ratio (JAK2 [2]; 40 pmole (0.17 μg) peptide per reaction, without optimization): 4.5; signal to noise ratio (JAK2 [2]; 5.5 nM JAK2, κ-casein present, FIG. 17B): 14; signal-to-noise ratio (JAK2 [2]; BSA 0.1 mg/ml or 0.5 mg/ml (either concentration), FIG. 16): 5; signal-to-noise ratio (JAK2 [2]; BSA experiment, no additions, FIG. 16): 4; amount of JAK2 at which binding reaches saturation (JAK2 [2]; binding curve, peptide 4, FIG. 17A): about 40 pmole; apparent Kd (JAK2 [2]; binding curve, varying labeled JAK2, FIG. 17A): very low apparent Kd; signal-to-noise ratio (JAK2 [2]; excess peptide, no κ-casein, FIG. 15): 10; signal-to-noise ratio (JAK2 [2]; excess peptide, κ-casein 1 mg/ml during peptide binding to beads, FIG. 15): 35; strength of binding (linear increase with JAK2) (JAK2 [2]; less than saturating JAK2, FIG. 17B): very strong; activity profile in binding 3H-JAK2 (signal) (JAK2 [2]; less than saturating peptide, 40 pmole per reaction, 3H-JAK2, FIG. 12A): peptide 4>peptide 3>peptide 5>peptide 6>peptides 1 and 2; overall signals and signal-to-noise ratios, peptide and labeled JAK2 mixed prior to adding beads (JAK2 [2]; mixed one hour before beads, versus peptide bound to bead first, FIG. 13): lower overall signals and signal-to-noise ratios; activity profile, peptide and labeled JAK2 mixed prior to adding beads (JAK2 [2]; mixed one hour before beads, FIG. 13): same activity profile
